Patent US20240392004A1 (IMMUNOWAKE, published 2024)

T1: mouse PD-1 (mouse, UniProt Q02242 25-167, limits assumed)
T1 construct: also called mPD-1
T1 sequence (looked up): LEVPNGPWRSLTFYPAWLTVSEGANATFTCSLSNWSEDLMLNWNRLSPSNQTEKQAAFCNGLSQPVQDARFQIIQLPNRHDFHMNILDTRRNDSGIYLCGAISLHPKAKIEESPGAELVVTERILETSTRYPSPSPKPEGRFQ

T2: human IL-2 receptor (IL-2Rα, IL-2Rβ, IL-2Rγ) (human, UniProt P01589 22-272; P14784 27-551; P31785 23-369)
T2 sequence (looked up) 1: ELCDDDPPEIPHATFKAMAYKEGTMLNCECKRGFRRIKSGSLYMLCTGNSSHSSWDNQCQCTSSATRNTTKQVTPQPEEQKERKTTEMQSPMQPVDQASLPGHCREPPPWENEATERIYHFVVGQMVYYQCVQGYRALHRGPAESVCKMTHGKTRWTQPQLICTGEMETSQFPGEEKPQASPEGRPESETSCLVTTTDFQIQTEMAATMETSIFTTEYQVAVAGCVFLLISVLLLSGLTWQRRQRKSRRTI
T2 sequence (looked up) 2: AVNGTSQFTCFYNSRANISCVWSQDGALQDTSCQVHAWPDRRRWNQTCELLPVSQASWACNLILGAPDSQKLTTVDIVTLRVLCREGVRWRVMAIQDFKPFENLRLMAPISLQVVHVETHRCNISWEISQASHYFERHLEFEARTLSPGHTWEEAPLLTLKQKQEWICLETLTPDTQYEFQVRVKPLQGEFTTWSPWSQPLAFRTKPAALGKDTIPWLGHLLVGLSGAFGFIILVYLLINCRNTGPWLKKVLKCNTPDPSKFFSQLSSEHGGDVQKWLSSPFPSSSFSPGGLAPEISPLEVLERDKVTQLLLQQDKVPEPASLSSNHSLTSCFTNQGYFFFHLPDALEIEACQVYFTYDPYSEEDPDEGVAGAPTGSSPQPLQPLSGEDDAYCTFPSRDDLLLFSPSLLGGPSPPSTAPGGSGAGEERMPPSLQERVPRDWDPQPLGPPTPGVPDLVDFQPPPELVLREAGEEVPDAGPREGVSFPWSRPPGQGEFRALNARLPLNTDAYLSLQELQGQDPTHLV
T2 sequence (looked up) 3: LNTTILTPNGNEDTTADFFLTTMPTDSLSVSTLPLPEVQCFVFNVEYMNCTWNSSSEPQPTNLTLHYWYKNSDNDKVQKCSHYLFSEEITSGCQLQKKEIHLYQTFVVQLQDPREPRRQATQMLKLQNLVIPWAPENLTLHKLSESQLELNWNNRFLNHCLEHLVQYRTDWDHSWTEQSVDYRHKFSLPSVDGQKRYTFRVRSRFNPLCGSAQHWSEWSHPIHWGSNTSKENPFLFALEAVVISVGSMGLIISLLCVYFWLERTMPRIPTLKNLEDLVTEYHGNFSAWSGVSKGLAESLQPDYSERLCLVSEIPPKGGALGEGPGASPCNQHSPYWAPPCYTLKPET

T3: IFN-γ receptor (IFNGR1 and IFNGR2) (UniProt P15260 18-489; P38484 22-337, limits assumed)
T3 sequence (looked up) 1: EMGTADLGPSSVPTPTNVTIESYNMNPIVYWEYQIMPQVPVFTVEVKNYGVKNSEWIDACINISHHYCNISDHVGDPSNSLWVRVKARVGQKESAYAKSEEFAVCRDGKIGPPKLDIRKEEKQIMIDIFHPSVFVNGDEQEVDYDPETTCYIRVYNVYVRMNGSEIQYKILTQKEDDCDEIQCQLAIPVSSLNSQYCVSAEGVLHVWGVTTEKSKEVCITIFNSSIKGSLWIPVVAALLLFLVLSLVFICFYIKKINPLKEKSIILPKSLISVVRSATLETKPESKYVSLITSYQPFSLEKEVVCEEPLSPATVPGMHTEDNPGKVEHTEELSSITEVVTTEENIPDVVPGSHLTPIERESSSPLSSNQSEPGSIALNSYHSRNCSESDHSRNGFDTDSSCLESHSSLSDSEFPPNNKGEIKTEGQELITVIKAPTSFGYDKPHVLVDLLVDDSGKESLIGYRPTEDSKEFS
T3 sequence (looked up) 2: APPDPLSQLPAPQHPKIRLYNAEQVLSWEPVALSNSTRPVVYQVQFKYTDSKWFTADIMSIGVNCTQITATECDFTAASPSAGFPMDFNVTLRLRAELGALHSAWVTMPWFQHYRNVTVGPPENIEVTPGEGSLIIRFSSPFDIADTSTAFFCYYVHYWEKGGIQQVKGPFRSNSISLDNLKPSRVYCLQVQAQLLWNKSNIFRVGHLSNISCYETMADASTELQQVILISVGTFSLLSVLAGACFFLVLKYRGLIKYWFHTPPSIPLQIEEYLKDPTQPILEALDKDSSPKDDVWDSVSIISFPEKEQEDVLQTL


Key:
mouse PD-1 = target: T1, mouse PD-1; test: PD-L1-Fc format, calibrated on PD-L1(wt)-Fc, method not stated
human PD-1 = target: T4, human PD-1 (human, UniProt Q15116 25-167, limits assumed); test: as above
T4 construct: also called hPD-1
T4 sequence (Q15116 25-167 limits assumed): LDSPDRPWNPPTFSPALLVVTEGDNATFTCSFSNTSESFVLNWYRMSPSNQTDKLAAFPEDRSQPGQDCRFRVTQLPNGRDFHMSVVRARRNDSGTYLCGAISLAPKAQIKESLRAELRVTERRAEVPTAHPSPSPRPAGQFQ

[1] = target: T2, human IL-2 receptor (IL-2Rα, IL-2Rβ, …); test: cell-based or functional assay
[2] = target: T5, human PD-1 on cells (HEK-PD-1 reporter cells; activated PBMC) (human, UniProt Q15116 25-288); test: cell-based or functional assay
T5 sequence (Q15116 25-288): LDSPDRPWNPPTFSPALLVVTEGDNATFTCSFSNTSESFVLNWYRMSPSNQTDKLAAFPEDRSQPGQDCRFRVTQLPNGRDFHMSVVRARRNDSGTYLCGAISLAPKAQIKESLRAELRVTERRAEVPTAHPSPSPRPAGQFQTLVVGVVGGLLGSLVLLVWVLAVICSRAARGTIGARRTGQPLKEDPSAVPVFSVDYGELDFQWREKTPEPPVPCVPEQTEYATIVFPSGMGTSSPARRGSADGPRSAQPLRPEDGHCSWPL

[3] = target: T3, IFN-γ receptor (IFNGR1 and IFNGR2); test: cell-based or functional assay
[4] = target: human IL-12 receptor complex (IL-12Rβ1 and IL-12Rβ2) (human, UniProt P42701 24-662; Q99665 24-862); test: cell-based or functional assay
Sequence of human IL-12 receptor complex (IL-12Rβ1 and IL-12Rβ2) (Q99665 24-862, chain 2 of 2, other chains not shown): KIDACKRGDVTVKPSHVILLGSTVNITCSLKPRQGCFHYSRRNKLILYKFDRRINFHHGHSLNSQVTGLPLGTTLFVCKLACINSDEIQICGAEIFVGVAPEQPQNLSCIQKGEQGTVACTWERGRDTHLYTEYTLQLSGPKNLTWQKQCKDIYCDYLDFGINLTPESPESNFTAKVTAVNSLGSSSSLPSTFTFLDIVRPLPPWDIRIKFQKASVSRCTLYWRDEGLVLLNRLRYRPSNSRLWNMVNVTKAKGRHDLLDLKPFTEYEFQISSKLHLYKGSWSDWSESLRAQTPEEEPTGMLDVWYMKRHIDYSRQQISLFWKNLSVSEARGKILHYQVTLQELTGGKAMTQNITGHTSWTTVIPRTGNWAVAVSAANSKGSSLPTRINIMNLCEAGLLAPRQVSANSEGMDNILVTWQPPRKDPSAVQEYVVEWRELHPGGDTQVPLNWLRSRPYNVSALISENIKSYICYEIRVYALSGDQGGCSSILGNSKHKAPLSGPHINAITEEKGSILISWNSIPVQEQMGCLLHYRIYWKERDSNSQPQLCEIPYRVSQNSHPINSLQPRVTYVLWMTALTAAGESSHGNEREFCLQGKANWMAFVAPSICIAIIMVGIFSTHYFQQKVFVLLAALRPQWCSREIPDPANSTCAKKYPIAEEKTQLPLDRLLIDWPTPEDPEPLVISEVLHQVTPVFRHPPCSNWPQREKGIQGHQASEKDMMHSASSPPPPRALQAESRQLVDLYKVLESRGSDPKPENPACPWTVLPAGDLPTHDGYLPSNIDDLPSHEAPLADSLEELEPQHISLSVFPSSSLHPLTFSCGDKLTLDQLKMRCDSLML

[5] = target: T5, human PD-1 on cells (HEK-PD-1 reporter …); test: cell-based or functional assay; remark: listed apart in the source

Row | Kd (mouse PD-1) | Kd (human PD-1) | IL-2 signal transduction, HEK-IL-2 [1] | IL-2 signal transduction, HEK-IL-2-PD-1 [2] | IFN-γ signal transduction, HEK-IFN-γ [3] | IL-12 signal transduction, HEK-IL-12 [4] | IFN-γ signal transduction, HEK-IFN-γ-PD-1 [5] | IL-12 signal transduction, HEK-IL-12-PD-1 [5] | Binder
1 | 120 nM | 150 nM | < 0.1% | < 0.1% |  |  |  |  | PD-L1(mut2)-Fc, I54Q/E58M/R113T/M115L/S117A/G119K (Fc fusion) chain 1: FTVTVPKDLYVVEYGSNMTIECKFPVEKQLDLAALQVYWMMEDKNIIQFVHGEEDLKVQHSSYRQRARLLKDQLSLGNAALQITDVKLQDAGVYTCLIAYKGADYKRITVKVNAPYNKINQRILVVDPVTSEHELTCQAEGYPKAEVIWTSSDHQVLSGKTTTTNSKREEKLFNVTSTLRINTTTNEIFYCTFRRLDPEENHTAELVIPELPLAHPPNERGGGGSGGGDKTHTCPPCPAPEDEGGPSVFLFPPKPKDTLMISRTPEVTCVVVDVSHEDPEVKFNWYVDGVEVHNAKTKPREEQYNSTYRVVSVLTVLHQDWLNGKEYKCKVSNKALPAPIEKTISKAKGQPREPQVYVYPPSREEMTKNQVSLTCLVKGFYPSDIAVEWESNGQPENNYKTTPPVLDEDGSFALVSKLTVDKSRWQQGNVFSCSVMHEALHNHYTQKSLSLSPGK chain 2: FTVTVPKDLYVVEYGSNMTIECKFPVEKQLDLAALQVYWMMEDKNIIQFVHGEEDLKVQHSSYRQRARLLKDQLSLGNAALQITDVKLQDAGVYTCLIAYKGADYKRITVKVNAPYNKINQRILVVDPVTSEHELTCQAEGYPKAEVIWTSSDHQVLSGKTTTTNSKREEKLFNVTSTLRINTTTNEIFYCTFRRLDPEENHTAELVIPELPLAHPPNERGGGGSGGGDKTHTCPPCPAPEKKGGPSVFLFPPKPKDTLMISRTPEVTCVVVDVSHEDPEVKFNWYVDGVEVHNAKTKPREEQYNSTYRVVSVLTVLHQDWLNGKEYKCKVSNKALPAPIEKTISKAKGQPREPQVYVLPPSREEMTKNQVSLLCLVKGFYPSDIAVEWESNGQPENRYMTWPPVLDSDGSFFLYSKLTVDKSRWQQGNVFSCSVMHEALHNHYTQKSLSLSPGK
2 |  |  |  |  | < 0.1% | < 0.2% | 44% | < 0.2% | IFN-γ(A23V/A23V)/PD-L1(mut2)-Fc (Fc fusion) chain 1: FTVTVPKDLYVVEYGSNMTIECKFPVEKQLDLAALQVYWMMEDKNIIQFVHGEEDLKVQHSSYRQRARLLKDQLSLGNAALQITDVKLQDAGVYTCLIAYKGADYKRITVKVNAPYNKINQRILVVDPVTSEHELTCQAEGYPKAEVIWTSSDHQVLSGKTTTTNSKREEKLFNVTSTLRINTTTNEIFYCTFRRLDPEENHTAELVIPELPLAHPPNERGGGGSGGGDKTHTCPPCPAPEDEGGPSVFLFPPKPKDTLMISRTPEVTCVVVDVSHEDPEVKFNWYVDGVEVHNAKTKPREEQYNSTYRVVSVLTVLHQDWLNGKEYKCKVSNKALPAPIEKTISKAKGQPREPQVYVYPPSREEMTKNQVSLTCLVKGFYPSDIAVEWESNGQPENNYKTTPPVLDEDGSFALVSKLTVDKSRWQQGNVFSCSVMHEALHNHYTQKSLSLSPGK chain 2: FTVTVPKDLYVVEYGSNMTIECKFPVEKQLDLAALQVYWMMEDKNIIQFVHGEEDLKVQHSSYRQRARLLKDQLSLGNAALQITDVKLQDAGVYTCLIAYKGADYKRITVKVNAPYNKINQRILVVDPVTSEHELTCQAEGYPKAEVIWTSSDHQVLSGKTTTTNSKREEKLFNVTSTLRINTTTNEIFYCTFRRLDPEENHTAELVIPELPLAHPPNERGGGSGQDPYVKEAENLKKYFNAGHSDVVDNGTLFLGILKNWKEESDRKIMQSQIVSFYFKLFKNFKDDQSIQKSVETIKEDMNVKFFNSNKKKRDDFEKLTNYSVTDLNVQRKAIHELIQVMAELSPAAKTGKRKRSQMLFRGGGGSGGGGSGGGGSGGGGSQDPYVKEAENLKKYFNAGHSDVVDNGTLFLGILKNWKEESDRKIMQSQIVSFYFKLFKNFKDDQSIQKSVETIKEDMNVKFFNSNKKKRDDFEKLTNYSVTDLNVQRKAIHELIQVMAELSPAAKTGKRKRSQMLFRGGGGGSGGGDKTHTCPPCPAPEKKGGPSVFLFPPKPKDTLMISRTPEVTCVVVDVSHEDPEVKFNWYVDGVEVHNAKTKPREEQYNSTYRVVSVLTVLHQDWLNGKEYKCKVSNKALPAPIEKTISKAKGQPREPQVYVLPPSREEMTKNQVSLLCLVKGFYPSDIAVEWESNGQPENRYMTWPPVLDSDGSFFLYSKLTVDKSRWQQGNVFSCSVMHEALHNHYTQKSLSLSPGK
